Data published in the supplement of paper PMC10567573.
± gives the standard deviation.

Assay: protein stability index of a GFP-peptide fusion (GPS, HEK-293T) (PSI 1-6); higher = more stable
[1] = treatment: DMSO, c terminus: a fixed tail appended
[2] = treatment: MLN4924 1 uM, 8 h, c terminus: a fixed tail appended
[3] = treatment: DMSO, c terminus: native
[4] = treatment: MLN4924 1 uM, 8 h, c terminus: native
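Note: 24-mer peptide tiles fused after GFP, lentivirally expressed, FACS-sorted into six equal bins by GFP/DsRed ratio, decoded by Illumina sequencing, PSI is the read-weighted mean bin number.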

Sequence | protein stability index [1] | protein stability index [2] | protein stability index [3] | protein stability index [4]
HQYWPAERSARYQYFVVDPMAEYN [PTPRD] | 2.4 ± 0.19 | 2.51 ± 0.32 | – | –
DVHELFLQMAVLVEKQADTLNVIE [STX11] | 2.2 ± 0.16 | 2.27 ± 0.27 | – | –
TQQELRKIREKEEWIKLDYHRRHN [IQUB] | 3.88 ± 0.29 | 3.82 ± 0.52 | – | –
LAAKERHCGELKRRLGLSTLGELK [TPD52L2] | 2.85 ± 0.32 | 3.02 ± 0.33 | – | –
HNRSNNKYSYTSTSDDNLLKNIEL [KCTD13] | 3.66 ± 0.12 | 3.73 ± 0.16 | – | –
EAEQSLRNLEDIHMSLEKDIAAMT [TEKT4] | 4.58 ± 0.25 | 4.8 ± 0.14 | – | –
LIRGSTFAKAKPEIPWTSLTRKGL [PHTF1] | 2.25 ± 0.17 | 2.41 ± 0.31 | – | –
GEDQWNPNGKHSTNFVSRYDPRFN [KLHL14] | 3.83 ± 0.23 | 3.57 ± 0.41 | – | –
GGPADLAGLEDEDVIIEVNGVNVL [PDZK1] | – | 4.46 ± 0.32 | – | –
EDDPLLDAQLLPHHSLQAHFRPRF [TMEM192] | 3.57 ± 0.35 | 3.53 ± 0.15 | – | –
ITTVSKAKGASLFTCDLQHTETGE [VPS39] | 4.06 ± 0.25 | 3.99 ± 0.21 | – | –
LLSRINKDWLEGTVRGATGIFPLS [NCF4] | 2.17 ± 0.47 | 2.51 ± 0.74 | – | –
EGYVWRGSQLEDQALRGLEGYTWR [ZSWIM9] | 2.7 ± 0.22 | 2.67 ± 0.18 | – | –
SRAESAPLPVSADDTPEVLNRALS [CDS2] | 5.36 ± 0.19 | 5.37 ± 0.21 | – | –
KHKRQMQDPQLHSPFSGSLHAPPA [VENTX] | 3.98 ± 0.28 | 3.83 ± 0.25 | – | –
FGVKYNPYTRSIQILKDTKSITSA [TPH1] | 2.43 ± 0.63 | 2.46 ± 0.11 | – | –
SRSLLTGGYNLASVSVWDLAAPSL [TLE6] | 2.38 ± 0.27 | 2.29 ± 0.14 | – | –
PFRGDEGIFEESFIEERRQGLEQF [SNX12] | 4.518 ± 0.041 | 4.42 ± 0.18 | – | –
RRCKPKKPTRRDASPESPSKKGPI [GNAS] | 5.15 ± 0.21 | 5.23 ± 0.22 | – | –
NDLWPTMENLLQATKSHVDKVIMK [DYNC2LI1] | 3.23 ± 0.25 | 3.31 ± 0.32 | – | –
AIGVGQVDFNTLKSIGSEPHEDHV [MATN2] | 4.67 ± 0.24 | 4.88 ± 0.054 | – | –
PVPVIVSNFNYFYHRETEGEEQAQ [KCNA1] | 3.62 ± 0.25 | 3.81 ± 0.4 | – | –
GEEQVELSTIEELIKDAIVSTQPA [C2CD2L] | 4.69 ± 0.3 | 4.7 ± 0.16 | – | –

Sequence | protein stability index [1] | protein stability index [2] | protein stability index [3] | protein stability index [4]
AGSIGGLFFAVGIAQYALLGYFIR [SLC22A15] | 3.35 ± 0.72 | 3.4 ± 0.23 | – | –
LTAFICFLVFILNAGLVWFFPWRE [MFSD9] | 2.23 ± 0.42 | 2.11 ± 0.51 | – | –
LRDRAERIASRAIDNAADLLIFGK [SNX8] | 3.28 ± 0.17 | 3.6 ± 0.31 | – | –
GCSSTQGNGRPGRPSQYRPDGLRS [LCOR] | 4.07 ± 0.085 | 4.14 ± 0.17 | – | –
HTPAGAAVSAMKCGLLPISPEALS [ADD1] | 3.13 ± 0.25 | 3.29 ± 0.32 | – | –
GSMKIKSSWDIDGRATKRRKKSGD [FBXO34] | – | 4.34 ± 0.81 | – | –
SLISGCPNIQEAVEGAMHIQECVP [CRYL1] | 3.87 ± 0.29 | 3.98 ± 0.18 | – | –
LELLDKIERSKIVSTMRCKTRQKS [PPEF2] | 3.54 ± 0.43 | 3.73 ± 0.074 | – | –
SSVSPAVSKASSRRSSFSMEEES [TFE3] | – | – | 5.44 ± 0.14 | 5.28 ± 0.17
SFPLWYEEALKDEEERAQDRIATT [MAGEA10] | 4.71 ± 0.19 | 4.5 ± 0.27 | – | –
AAPPPPATPIVPVVPPTPPVVKKK [BRD3] | 5.51 ± 0.21 | 5.25 ± 0.48 | – | –
KDQQTFARSVGLKWRKVGRSLQRG [TRADD] | 3.27 ± 0.34 | 3.49 ± 0.3 | – | –
THSREKSSQESGEEAGSQENHPQE [CHGB] | 5.54 ± 0.39 | 5.6 ± 0.18 | – | –
CSSKRSSIPLMGFEFEVRVCDSCH [WDFY2] | 2.24 ± 0.39 | 2.15 ± 0.34 | – | –
RARGWAAAARAAQRRRRVENAGGS [RSAD1] | 4.48 ± 0.19 | 4.77 ± 0.17 | – | –
EVGDPAPLGAGNLGPELIKESNAN [DPCD] | 5.31 ± 0.31 | 5.28 ± 0.1 | – | –
RHKQPTLLMVRASRRSGKTSAVLK [C6orf223] | 3.29 ± 0.26 | 3.45 ± 0.24 | – | –
VSGDYYPIIYFNDYWNLQKDYYPI [CLPTM1] | 3.03 ± 0.64 | 3.1 ± 0.87 | – | –
LPTVGGQLGTAGQGFSYSKSNGRG [MYOZ1] | 4.3 ± 0.21 | 4.4 ± 0.35 | – | –
LPRHQDQPHHQPPNRAGAPGESLE [TRAF3IP2] | 5.51 ± 0.2 | 5.43 ± 0.095 | – | –
ESKKNRVEINDLDPEVFKEMMRFI [SPOPL] | 1.55 ± 0.31 | – | – | –
ENIQDITVNIHRLHVKRSMGWKKA [ZMYND11] | 2.98 ± 0.26 | 3.22 ± 0.49 | – | –
YQLELQCCIDWTHVTDPLIGCKKP [SMG5] | 2.38 ± 0.45 | 2.1 ± 0.3 | – | –

Sequence | protein stability index [1] | protein stability index [2] | protein stability index [3] | protein stability index [4]
KNHEEEMLALRGQTGGDVNVEMDA [KRT16] | 5.46 ± 0.17 | 5.6 ± 0.22 | – | –
RCRPRSLIDYKSYMDTKLLVARFL [FAM189A2] | 2.42 ± 0.11 | 2.3 ± 0.3 | – | –
AQTLLRLSGVQRVESVFFGGGTPS [RSAD1] | 2.43 ± 0.27 | 2.47 ± 0.3 | – | –
WAAPRVGPLPPAPAMVRISKPKTF [YPEL3] | 3.15 ± 0.43 | 3.25 ± 0.18 | – | –
VPKNYVVVLSDGPALHPAHAPQIS [NCK2] | 2.42 ± 0.17 | 2.61 ± 0.31 | – | –
EEKPQENKTWREQYLRLPDAPEQR [ELOA2] | 5.18 ± 0.28 | 4.88 ± 0.11 | – | –
EVELAYQEAMFNMATLNRTAAGLM [SEPHS2] | 2.42 ± 0.46 | 2.56 ± 0.68 | – | –
KTKAPAPDEGSDLFYDDYYEDGEV [CDC34] | 5.35 ± 0.31 | 5.38 ± 0.29 | – | –
SLARLQQLLFVIFLLLYLFTLGTN [OR10K2] | 2.78 ± 0.51 | 2.13 ± 0.53 | – | –
STEKVVQETVLVEERRVVHASGDA [EPB41L3] | 5.33 ± 0.23 | 4.93 ± 0.16 | – | –
LASGLVVFFLFPHSVLVDDDGIKV [TMEM106C] | 2.92 ± 0.48 | 2.86 ± 0.49 | – | –
RNPGPGRHRLITQVYLSHTAWTEA [INTS4] | 2 ± 0.23 | 2.29 ± 0.35 | – | –
FSKNLKLGIHEDSTNRRRLSELLR [HSP90AB1] | – | 2.43 ± 0.39 | – | –
IYAMKILRKSDMLEKEQVAHIRAE [STK38L] | 2.33 ± 0.26 | 2.48 ± 0.22 | – | –
QARKALFEKWEQETAAGKGKGEAR [SMTNL2] | 4.836 ± 0.03 | 4.84 ± 0.29 | – | –
QLFTEYGRLAMDEIFQKPFQTLMF [ATL3] | 2.33 ± 0.49 | 2.35 ± 0.47 | – | –
HVFQRQKSELSDGIAILVGSNDRV [TRIM55] | 3.18 ± 0.25 | 3.21 ± 0.21 | – | –
DVKTNVQLLKGRVDNISTLDSEIK [CD207] | 3.74 ± 0.48 | 4.01 ± 0.3 | – | –
VSSDGTLKYMEVTLRPTDSQSHCY [PCDHGC5] | 2.8 ± 0.38 | 2.65 ± 0.23 | – | –
AFCALVHSFFPDAFDYNSLSPTQR [SMTNL2] | 2.61 ± 0.56 | 2.21 ± 0.31 | – | –
QGQPAMEGHCVIQVDVGDVNDNAP [PCDHGC5] | 4.97 ± 0.5 | 4.78 ± 0.075 | – | –
ECLKRQGQREPGSLSRNNSFRRNV [FBXO34] | 4.11 ± 0.26 | 4.22 ± 0.18 | – | –
KISGGPHISYPPLHEWVLREGEE [MAGEA3] | – | – | 2.92 ± 0.62 | 3.33 ± 0.43

Sequence | protein stability index [1] | protein stability index [2] | protein stability index [3] | protein stability index [4]
TRPTQHELRLYKQQVKKLEKALKK [CEP70] | 3.23 ± 0.25 | 3.07 ± 0.29 | – | –
NTLVTKTMEDTLMTVKQYEAARLE [ARFIP2] | 4.19 ± 0.3 | 4.55 ± 0.23 | – | –
SPQIQRSAHRALYRRHVLGIVLQG [TMEM175] | 2.3 ± 0.19 | 2.42 ± 0.36 | – | –
RITAAEALKHPWISHRSTVASCMH [CAMK2A] | 2.54 ± 0.19 | 2.89 ± 0.19 | – | –
KSRRSRSESETSTMAAKKNRQSSD [C18orf25] | 5.47 ± 0.15 | 5.53 ± 0.25 | – | –
MENNHTVAITILQDDHDHKVQELM [MTUS2] | 4.42 ± 0.26 | 4.34 ± 0.098 | – | –
EMDWAQMACHRCLVYLGDLSRYQN [SMG5] | 2.36 ± 0.4 | 2.17 ± 0.18 | – | –
PQLASLCLDTIDKSTMDAISAEGF [BTBD1] | 3.98 ± 0.16 | 3.99 ± 0.057 | – | –
AWISKIKGSPDVSASSDEPYARIQ [SMIM2] | 3.11 ± 0.38 | 3.44 ± 0.17 | – | –
SLSELLSQLDSGVSQAVEGPEELS [RIPK4] | 4.27 ± 0.29 | 4.1 ± 0.4 | – | –
ICPLKERRFGAVACGVAMELYVFG [GAN] | 2.36 ± 0.53 | 2.96 ± 1.1 | – | –
HGSQGTYSNTKENGINGELTSADR [MAP2] | 5.11 ± 0.24 | 5.17 ± 0.22 | – | –
KGNREDSARMSAGLPGPEAARSGD [PLEKHN1] | 5.41 ± 0.39 | 5.39 ± 0.41 | – | –
EEPQTVPEARSRDATPPVSPINME [JUNB] | 5.38 ± 0.29 | 5.46 ± 0.27 | – | –
DFDYNAIDNANRILGPAYFVTYVF [PKD2L1] | 2.73 ± 0.6 | 2.66 ± 0.59 | – | –
LRRPRPVQRTQSVPVRRPARRRQS [RASAL3] | 4.99 ± 0.29 | 5.19 ± 0.35 | – | –
TFFEVSPLCNFNVIESFTELSRIV [RAB40C] | 2.46 ± 0.63 | 2.15 ± 0.43 | – | –
YFFPVIFSKASSSLQLVFGIELME [MAGEA3] | 3.44 ± 0.27 | 2.96 ± 0.25 | – | –
NSSNSDIVHVEKEEVPEGMEEAAV [BCL2L13] | 5.6 ± 0.14 | 5.61 ± 0.28 | – | –
EAKALLKERQKKDNHNLIERRRRF [TFE3] | 4.21 ± 0.32 | 4.38 ± 0.2 | – | –
HGVRAKVQPQARKKEMEMRQLQRG [CPN1] | 4.38 ± 0.38 | 4.5 ± 0.25 | – | –
